Assays:
ヒトD374Y PCSK9 (human) [1] = experiment: cell-based or functional assay
ヒトD374Y PCSK9 (human) [2] = experiment: competition ELISA: block of biotinylated D374Y PCSK9 (20 ng/mL) binding to captured LDLR
ヒトPCSK9(野生型) (human) = experiment: Biacore at pH 6.0 (HBS-P with 0.01 % BSA), fitted from competition curves, n=1

Work on 21B12 IgG4 (antibody) yielded a 細胞LDL取り込みアッセイ(HepG2、LDL-BODIPY)のIC50 (ヒトD374Y PCSK9 (human) [1]) of 18 nM and an IC50 (ヒトD374Y PCSK9 (human) [2]) of 0.169 nM.

For 31H4 IgG4 (antibody), the 細胞LDL取り込みアッセイ(HepG2、LDL-BODIPY)のIC50 (ヒトD374Y PCSK9 (human) [1]) was 13.3 nM and the IC50 (ヒトD374Y PCSK9 (human) [2]) was 0.156 nM.

31H4 IgG2 (antibody) gave a 細胞LDL取り込みアッセイ(HepG2、LDL-BODIPY)のIC50 (ヒトD374Y PCSK9 (human) [1]) of 16.7 nM and an IC50 (ヒトD374Y PCSK9 (human) [2]) of 0.199 nM.

For 21B12 IgG2 (antibody), the 細胞LDL取り込みアッセイ(HepG2、LDL-BODIPY)のIC50 (ヒトD374Y PCSK9 (human) [1]) was 13.3 nM and the IC50 (ヒトD374Y PCSK9 (human) [2]) was 0.17 nM.

With 21B12 (antibody) the Kd (ヒトPCSK9(野生型) (human)) was 0.0073 nM.

Source: patent publication JP2016528193A
